Measurements as given in PMC7020754.

T1: Rv0023 (XRE family transcription regulator) (Mycobacterium tuberculosis, UniProt P9WMI3 1-256)
T1 sequence: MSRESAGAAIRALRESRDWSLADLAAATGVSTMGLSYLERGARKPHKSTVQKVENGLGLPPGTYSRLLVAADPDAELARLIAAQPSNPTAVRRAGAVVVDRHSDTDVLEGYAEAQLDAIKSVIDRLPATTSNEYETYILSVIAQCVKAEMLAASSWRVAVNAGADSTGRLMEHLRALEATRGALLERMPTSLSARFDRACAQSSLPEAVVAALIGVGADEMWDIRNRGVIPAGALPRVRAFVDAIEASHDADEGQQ

B1: M0 (dsDNA)
DNA 1: AGAGCCCGCCACAGACATATACGCTTTTGCCTATGTTTC
DNA 2: GAAACATAGGCAAAAGCGTATATGTCTGTGGCGGGCTCT
B2: M4 (dsDNA)
DNA 1: AGAGCCCGCCACAGACATATGCGCTTTTGCCTATGTTTC
DNA 2: GAAACATAGGCAAAAGCGCATATGTCTGTGGCGGGCTCT
B3: M5 (dsDNA)
DNA 1: AGAGCCCGCCACAGACATATACGCGTTTGCCTATGTTTC
DNA 2: GAAACATAGGCAAACGCGTATATGTCTGTGGCGGGCTCT
B4: M1 (dsDNA)
DNA 1: AGAGCCCGCCACAGACAGATACGCTTTTGCCTATGTTTC
DNA 2: GAAACATAGGCAAAAGCGTATCTGTCTGTGGCGGGCTCT
B5: M9 (dsDNA)
DNA 1: AGAGCCCGCCACAGACATATACTCTTTTGCCTATGTTTC
DNA 2: GAAACATAGGCAAAAGAGTATATGTCTGTGGCGGGCTCT
B6: M10 (dsDNA)
DNA 1: AGAGCCCGCCACAGACATATATGCTTTTGCCTATGTTTC
DNA 2: GAAACATAGGCAAAAGCATATATGTCTGTGGCGGGCTCT
B7: F1 (dsDNA)
DNA 1: AGAGCCCGCCACAGACATATACGCTTTTGCCTATGTTTCGTTCAACAAGGAGGCCGGCAC
DNA 2: GTGCCGGCCTCCTTGTTGAACGAAACATAGGCAAAAGCGTATATGTCTGTGGCGGGCTCT
B8: OL1 (dsDNA)
DNA 1: CACCCCTTATGTATATACGTTTTTATCGCGATTCTCTTGC
DNA 2: GCAAGAGAATCGCGATAAAAACGTATATACATAAGGGGTG
B9: F3 (dsDNA)
DNA 1: CCATAAGCCGGATACTACCCGGATACGACTCGGCCGCGGCCACCCCTTATGTATATACGT
DNA 2: ACGTATATACATAAGGGGTGGCCGCGGCCGAGTCGTATCCGGGTAGTATCCGGCTTATGG
B10: OL2 (dsDNA)
DNA 1: TTTTATCGCGATTCTCTTGCAGAGCCCGCCACAGACATAT
DNA 2: ATATGTCTGTGGCGGGCTCTGCAAGAGAATCGCGATAAAA
B11: F4 (dsDNA)
DNA 1: TGGCCGCGCCGGCCGACTCACGGCTCACCGCACGCTCCGGCCATAAGCCGGATACTACCC
DNA 2: GGGTAGTATCCGGCTTATGGCCGGAGCGTGCGGTGAGCCGTGAGTCGGCCGGCGCGGCCA
B12: OL3 (dsDNA)
DNA 1: AGAGCCCGCCACAGACATATACGCTTTTGCCTATGTTTCG
DNA 2: CGAAACATAGGCAAAAGCGTATATGTCTGTGGCGGGCTCT
B13: OL5 (dsDNA)
DNA 1: ATTCTCTTGCAGAGCCCGCCACAGACATATACGCTTTTGC
DNA 2: GCAAAAGCGTATATGTCTGTGGCGGGCTCTGCAAGAGAAT
B14: F6 (dsDNA)
DNA 1: GCTCAGGCCCATGGTGCTTACGCCAGTGGCGGCCGCCAGGTCCGCGAGGGACCAGTCACG
DNA 2: CGTGACTGGTCCCTCGCGGACCTGGCGGCCGCCACTGGCGTAAGCACCATGGGCCTGAGC
B15: OL4 (dsDNA)
DNA 1: ACGCTTTTGCCTATGTTTCGTTCAACAAGGAGGCCGGCAC
DNA 2: GTGCCGGCCTCCTTGTTGAACGAAACATAGGCAAAAGCGT
B16: F2 (dsDNA)
DNA 1: CACCCCTTATGTATATACGTTTTTATCGCGATTCTCTTGCAGAGCCCGCCACAGACATAT
DNA 2: ATATGTCTGTGGCGGGCTCTGCAAGAGAATCGCGATAAAAACGTATATACATAAGGGGTG
B17: F5 (dsDNA)
DNA 1: TCCGCGAGGGACCAGTCACGCGACTCGCGAAGTGCGCGAATGGCCGCGCCGGCCGACTCA
DNA 2: TGAGTCGGCCGGCGCGGCCATTCGCGCACTTCGCGAGTCGCGTGACTGGTCCCTCGCGGA

Target: T1, Rv0023 (XRE family transcription …)
Experiment: EMSA; 8 pmol protein
Details: protein: recombinant; tags: His (implied by Ni-NTA purification; pET23a, also printed pET21b); chain copies: 2; label: 32P

Does B1 bind?
Result: binds

Does B2 bind?
Result: binds

Does B3 bind?
Result: binds

Does B4 bind?
Result: binds

Does B5 bind?
Result: binds

Does B6 bind?
Result: binds

Same assay, conditions: protein: recombinant; tags: His (implied by Ni-NTA purification; pET23a, also printed pET21b); chain copies: 2; label: 32P; blunt

Does B7 bind?
Result: binds

Does B8 bind?
Result: binds

Does B9 bind?
Result: no binding

Does B10 bind?
Result: no binding

Does B11 bind?
Result: no binding

Does B12 bind?
Result: binds

Does B13 bind?
Result: no binding

Does B14 bind?
Result: no binding

Does B15 bind?
Result: no binding

Does B16 bind?
Result: binds

Does B17 bind?
Result: no binding
